Experimental data as given in the supplement of paper PMC10567573.
± gives the standard deviation.

Experiment: protein stability index of a GFP-peptide fusion (GPS, HEK-293T) (PSI 1-6); higher = more stable
[1] = treatment: DMSO, c terminus: a fixed tail appended
[2] = treatment: MLN4924 1 uM, 8 h, c terminus: a fixed tail appended
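Also: 24-mer peptide tiles fused after GFP, lentivirally expressed, FACS-sorted into six equal bins by GFP/DsRed ratio, decoded by Illumina sequencing, PSI is the read-weighted mean bin number.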

Sequence | protein stability index [1] | protein stability index [2] | protein stability index (treatment: DMSO, c terminus: native) | protein stability index (treatment: MLN4924 1 uM, 8 h, c terminus: native)
QQSDLGQYVTFLRSFSDKQKISLL [ALG2] | 2.22 ± 0.24 | 2.29 ± 0.23 | – | –
QQVKKLEKALKKNVKLQELINHKK [CEP70] | 2.6 ± 0.28 | 2.67 ± 0.41 | – | –
QRLVEALEENELTSLAEDLLGLTD [TRADD] | 4.28 ± 0.14 | 4.28 ± 0.17 | – | –
QRQAPGPARDYSQYYRTIEELQNK [KRT17] | 4.07 ± 0.15 | 4.12 ± 0.063 | – | –
QRQQLPVTFGNKQKVLGKALSLIR [BTBD1] | 2.81 ± 1 | 2.2 ± 0.41 | – | –
QSFGVASASSIKQILLEWCRSKTL [SMTNL2] | 2.41 ± 0.27 | 2.15 ± 0.39 | – | –
QSLDQEILLKVKTEIEEELKSLDK [BCL2L13] | 4.51 ± 0.42 | 4.93 ± 0.24 | – | –
QSSKRSSRSVEDDKEGHLVCRIGD [CLK3] | 5.3 ± 0.43 | 5.17 ± 0.25 | – | –
QVATSPDFDGKLKDIAGEFKEQLQ [ATL3] | 4.34 ± 0.35 | 4.32 ± 0.38 | – | –
QVEVDAQQCMLEILDTAGTEQFTA [RAP1B] | 4.54 ± 0.12 | 4.59 ± 0.16 | – | –
QVPEEMSRCRNSYTEQELKPLTLE [DLC1] | 4.48 ± 0.26 | 4.46 ± 0.29 | – | –
QYLMATFVHVYITSFIRGPNPSKV [CDS1] | 3.12 ± 0.17 | 3.2 ± 0.34 | – | –
QYPNPLPVLSGAELEKAHLALIDY [VPS39] | 3.55 ± 0.24 | 3.58 ± 0.31 | – | –
QYWPSRGTETHGLVQVTLLDTVEL [PTPRD] | 2.13 ± 0.17 | 2.23 ± 0.49 | – | –
RADEPQWSLYPSDSQVSEEVKTRH [CHGB] | 5.18 ± 0.068 | 5.18 ± 0.064 | – | –
RAGKMLMTLPLLRQTSTKAVQHFY [ESRRG] | 2.28 ± 0.31 | 2.16 ± 0.37 | – | –
RAQEREQIKALNNKFASFIDKVRF [KRT71] | 2.1 ± 0.11 | 2.2 ± 0.3 | – | –
RDRVGHKSIPMRNLRARPAKCLS [SERPINB5] | – | – | 2.34 ± 0.23 | 2.48 ± 0.24
RDVAAWGRARATGGDLEEQQHAEG [DNAAF3] | 5.43 ± 0.24 | 5.3 ± 0.086 | – | –
REDSKEAEKSGEATDGARPQALPE [CHGA] | 5.64 ± 0.066 | 5.64 ± 0.17 | – | –
REFSFTLKDDIYIRYQSFNNQSDL [PRIM1] | 2.26 ± 0.084 | 2.22 ± 0.41 | – | –
REHVCRKDQRNPPSLGRVLPDPRE [RBMY1A1] | 4.69 ± 0.22 | 4.8 ± 0.24 | – | –
REISETEAKALLKERQKKDNHNLI [TFE3] | 5 ± 0.23 | 5.1 ± 0.16 | – | –

Sequence | protein stability index [1] | protein stability index [2] | protein stability index (treatment: DMSO, c terminus: native) | protein stability index (treatment: MLN4924 1 uM, 8 h, c terminus: native)
RELGIRQRDEQLRALQERLGQQQR [FBF1] | 4.39 ± 0.14 | 4.42 ± 0.14 | – | –
RELTGLKALYETELADARRALDDT [LMNB1] | 4.76 ± 0.31 | 4.77 ± 0.094 | – | –
RFELINIDDLEDDPVVNGERSGCA [TCF25] | 4.69 ± 0.26 | 4.68 ± 0.26 | – | –
RFRSCNTEDCPTGSALTFREEQCA [ADAMTS4] | 3.75 ± 0.3 | 4.24 ± 0.27 | – | –
RFYLPLLIHQHEKVIYLDDDVIVQ [GLT8D2] | 2.32 ± 0.56 | 1.97 ± 0.25 | – | –
RGMDLSWESRTGDQYSYSSLVMGS [LCOR] | 2.65 ± 0.41 | 2.92 ± 0.28 | – | –
RGPRMCRFIRERDRAVNDYPSLYY [CDC25B] | 2.17 ± 0.27 | 2.12 ± 0.39 | – | –
RHLERKAWVANFERPRMNANSLLA [CRY1] | 2.49 ± 0.27 | 3.1 ± 0.15 | – | –
RHNALLSKRLLALTSSDLGCQPSR [TMEM192] | 2.97 ± 0.13 | 3.14 ± 0.38 | – | –
RHSFRKHLYLLRGLPGSGKTTLAR [N4BP2L1] | 2.5 ± 0.17 | 2.54 ± 0.37 | – | –
RKADFKAGKALVISGREVFEFRPE [ZC3H15] | 3.11 ± 0.25 | 3.38 ± 0.41 | – | –
RKIQFNFPYFRSDRDKRDFVSAGA [CLCN6] | 2.67 ± 0.16 | 2.76 ± 0.39 | – | –
RLGWQQQAELQELEERLQLQFEAE [MTUS2] | 4.55 ± 0.24 | 4.65 ± 0.11 | – | –
RLLSYRGERVAARGYWGDIATGPF [DNAAF3] | 2.18 ± 0.046 | 2.18 ± 0.34 | – | –
RLVGKTPIETLIRDMLLSGSSFNW [NR2F2] | 3.25 ± 0.84 | 1.87 ± 0.54 | – | –
RMTSSPSSIPRRDDFFRHESGEHF [RAD54B] | 3.67 ± 0.25 | 3.68 ± 0.14 | – | –
RNIHRHVILSEIKEAVAALPPDVT [TCF25] | 3.35 ± 0.084 | 3.62 ± 0.28 | – | –
RPENRSFYLALYKQMSFLEKRGCP [TCF25] | 2.12 ± 0.3 | 2.19 ± 0.34 | – | –
RQGIQLNKTPGAPESSALQPPPQS [WAS] | 4.74 ± 0.6 | 4.8 ± 0.094 | – | –
RQSGDRRQLPPPPTPANEERRGGL [WAS] | 5.42 ± 0.16 | 5.23 ± 0.068 | – | –
RRAGEGRRSPRPDHPGTPPHKTFR [WEE1] | 4.78 ± 0.41 | 4.83 ± 0.32 | – | –
RRHCPLPQATFWGLVTPRSWSCHT [SOAT2] | 2.46 ± 0.4 | 2.25 ± 0.17 | – | –
RRLKYFFMSPCDKFRAKGRKPCKL [MCOLN1] | 2.38 ± 0.38 | 2.71 ± 0.16 | – | –

Sequence | protein stability index [1] | protein stability index [2] | protein stability index (treatment: DMSO, c terminus: native) | protein stability index (treatment: MLN4924 1 uM, 8 h, c terminus: native)
RRMCFVDPVRQCAECALVSLKEAE [ZFYVE21] | 2.98 ± 0.25 | 3.01 ± 0.64 | – | –
RRPHELLPVGGRLPGPTRPVLGRR [HAGHL] | 4.67 ± 0.16 | 4.92 ± 0.4 | – | –
RSHFLWKEPATMSWLEENVHEVLQ [TCF25] | 2.43 ± 0.78 | 2.69 ± 0.39 | – | –
RSKYDYLMILRRVVNESTVCLMGH [TENT5C] | 3.05 ± 0.86 | 2.52 ± 0.55 | – | –
RSLNEEHSKQYRCLSFQPECSMKL [VDR] | 3.25 ± 0.26 | 3.41 ± 0.31 | – | –
RSMVFKDVLLLGNDYIVPRHCPEL [HNF4A] | 2.29 ± 0.14 | 2.23 ± 0.32 | – | –
RSPLVSGDESSLLLNAASTVARPV [RHOBTB3] | 4.31 ± 0.17 | 4.25 ± 0.26 | – | –
RSVDVVVSSVFLLTLSIAFICCAQ [PHTF1] | 3.33 ± 0.59 | 3.35 ± 0.6 | – | –
RTIYHMFIALLILFILSTLVVDYI [SOAT1] | 2.84 ± 1.7 | 2.17 ± 0.28 | – | –
RTVDGSPMMKAAMYSVEITVEKDK [PALM] | 4.09 ± 0.18 | 4.1 ± 0.23 | – | –
RVRPTFQEITSETEDLCEKPDDEV [RIPK4] | 5.57 ± 0.17 | 5.49 ± 0.56 | – | –
RWREGTKDSHDPLPSWAELLRPKY [PBXIP1] | 2.5 ± 0.21 | 2.96 ± 0.3 | – | –
RWSSDLNKHLTTHQGIKPYKCSWC [ZNF75A] | 2.55 ± 0.45 | 2.73 ± 0.49 | – | –
RYVYRFVCDLQSLLGYTPEELHAM [ETS1] | 2.69 ± 0.65 | 2.5 ± 0.5 | – | –
SAQYSQQLQAARNEYLLNLVATNA [FCHSD1] | 2.71 ± 0.11 | 2.77 ± 0.18 | – | –
SDGRTFLSRCEFQRAKCKDPQLEI [SMOC2] | 2.95 ± 0.42 | 2.93 ± 0.33 | – | –
SDPARYEFLWGPRAHAEIRKMSLL [MAGEA10] | 2.46 ± 0.3 | 2.49 ± 0.53 | – | –
SDPQLIVQLRFCGRQPCGRFLRAY [TRADD] | 2.35 ± 0.69 | 2.11 ± 0.27 | – | –
SDYFCAMFTSELSEKGKPYVDIQG [KLHL12] | 2.53 ± 0.14 | 2.91 ± 0.27 | – | –
SDYISEFRFAPNHTKELEDKVIEL [EPB41L3] | 2.83 ± 0.5 | 3.44 ± 0.49 | – | –
SEGLHLAGTAGHPPSGSQPLTSTQ [FBF1] | 5.07 ± 0.17 | 4.96 ± 0.23 | – | –
SEIIQITTGSKELDKLLQGGIETG [RAD51] | 4.11 ± 0.34 | 4.3 ± 0.26 | – | –
SELPFVPNYLANPAFPFIYTPTAE [ANKRD40] | 2.8 ± 0.19 | 2.95 ± 0.2 | – | –

Sequence | protein stability index [1] | protein stability index [2] | protein stability index (treatment: DMSO, c terminus: native) | protein stability index (treatment: MLN4924 1 uM, 8 h, c terminus: native)
SENVVNRMKEPSSPPPAPTSSTFG [CHCHD6] | 5.04 ± 0.2 | 5.3 ± 0.13 | – | –
SEQEHFLIVPFGLLYSEVTASSLV [ADD1] | 2.65 ± 0.57 | 2.92 ± 0.68 | – | –
SETPKSQVGTLLFRSRSRLTHLSL [CDC25B] | 2.43 ± 0.12 | 2.53 ± 0.3 | – | –
SEVESAVWYVKKFGRYLEHLEVKF [FBXO39] | 2.44 ± 0.22 | 2.47 ± 0.43 | – | –
SFMMGQGGEAAHHTRSPYSTFYPP [NEUROD6] | 2.66 ± 0.39 | 2.84 ± 0.25 | – | –
SFMTWLRSYIKLFQAPCQRCGKFL [MED27] | 2.6 ± 0.31 | 2.48 ± 0.18 | – | –
SFSTAIGRTCITDLQLTVGGAQAS [MFSD9] | 2.5 ± 0.33 | 2.34 ± 0.3 | – | –
SFTQGEGARPLSTRVPRAAIVFTD [MATN2] | 3.5 ± 0.38 | 3.55 ± 0.12 | – | –
SGADTAKCGIHSMFPLHLAALNAH [ANKRD44] | 2.07 ± 0.29 | 2.36 ± 0.11 | – | –
SGCLRISIQKLSNESRYMIYEFWE [NECAB1] | 2.21 ± 0.95 | 2.64 ± 0.82 | – | –
SGDDKNSNYFSMDSMEGKRSPYAG [TRIM29] | 4.5 ± 0.25 | 4.61 ± 0.24 | – | –
SGEFGSVFKCVKRLDGCIYAIKRS [WEE1] | 2.31 ± 0.58 | 2.65 ± 0.12 | – | –
SGLRGGILIELAMRGRIYLEPPTM [GOLPH3L] | 3.09 ± 0.41 | 2.74 ± 0.76 | – | –
SGNMLGRHFFTSWASCLQYDFDTQ [WDFY1] | 2.47 ± 0.53 | 2.11 ± 0.12 | – | –
SGSESPSDSGKDLPEPSKRGPPHG [MYCL] | 5.4 ± 0.24 | 5.32 ± 0.12 | – | –
SGTQYVSTRQTQSWTAVTPQQTWA [C18orf25] | 2.7 ± 0.29 | 3 ± 0.51 | – | –
SGVDECARQEGLTFFGTELAPVRQ [PBXIP1] | 4.13 ± 0.4 | 4.08 ± 0.35 | – | –
SHGYDMSTFIRRYSRYLNEKAFSY [SNAP91] | 2.17 ± 0.24 | 2.3 ± 0.52 | – | –
SHLLVAEPEKIYAMPDPTVPDSDI [ESRRG] | 5.04 ± 0.081 | 5.08 ± 0.13 | – | –
SHLQTNYSKTFQRSNVDFLETPEL [NECAB1] | 3.47 ± 0.23 | 3.62 ± 0.57 | – | –
